In patent publication US20140161803A1 (IFOM FONDAZIONE ISTITUO FIRC DI ONCOLOGIA MOLECOLARE, published 2014):
Like-named read-outs stand apart in the source and are kept apart here. Values belong to the binder of their own block, whether it stands above or below them.

Legend:
wild-type human uPAR = wild-type human uPAR (human, UniProt Q03405 23-305, GPI-anchor on Gly283); test: cell-based or functional assay
vitronectin = molecular target: T1, vitronectin (UniProt P04004 20-478, limits assumed); test: soluble receptor titrated on immobilized VN without pro-uPA; detection 13F6 + Eu3+ anti-mouse, time-resolved fluorescence
T1 construct: also called VN; immobilized VN
T1 sequence (P04004 20-478 limits assumed): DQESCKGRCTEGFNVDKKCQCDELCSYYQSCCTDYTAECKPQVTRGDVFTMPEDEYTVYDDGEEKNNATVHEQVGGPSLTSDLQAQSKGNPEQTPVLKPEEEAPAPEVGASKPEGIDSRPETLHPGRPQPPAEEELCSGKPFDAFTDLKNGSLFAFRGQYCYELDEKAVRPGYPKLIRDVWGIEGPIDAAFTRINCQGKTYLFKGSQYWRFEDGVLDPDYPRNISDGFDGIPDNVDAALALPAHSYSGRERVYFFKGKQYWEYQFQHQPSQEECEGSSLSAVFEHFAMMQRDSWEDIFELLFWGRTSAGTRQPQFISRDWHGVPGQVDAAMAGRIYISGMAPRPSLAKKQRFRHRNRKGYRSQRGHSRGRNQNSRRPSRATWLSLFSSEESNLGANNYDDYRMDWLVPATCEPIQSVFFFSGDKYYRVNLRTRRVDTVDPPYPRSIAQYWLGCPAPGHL
Procedure: The data are from a single experiment and presented as means±SD. The binding curve and Kd were calculated by non-linear regression. […] The data are from a single experiment and are represented as means±SD. The binding curve and Kd were calculated by non-linear regression.

pro-uPA [1] = molecular target: T2, pro-uPA (UniProt P00749 21-431, limits assumed, Eu3+-label in the cell binding competition assay); test: soluble receptor titrated on immobilized pro-uPA; detection 13F6 + Eu3+ anti-mouse, time-resolved fluorescence
T2 construct: also called immobilized uPA
Procedure: The bound material was detected by measuring time-resolved fluorescence intensity. Specific binding was calculated by subtracting the non-specific binding measured in uncoated wells incubated with identical samples. […] The binding curve and dissociation constant (Kd) were calculated by non-linear regression (four-parameter fit) using the Prism 5.0 software suite.
ON. […] The Eu³⁺-label was detected by measuring time-resolved fluorescence intensity using an Envision Xcite plate reader (Perkin Elmer Corp.) employing the DELFIA label protocol. To calculate the specific binding, non-specific binding measured in uncoated wells, incubated with identical samples, was subtracted from the total binding measured in coated wells.

pro-uPA [2] = molecular target: T2, pro-uPA; test: as above; remark: listed apart in the source
Procedure: The bound material was detected by measuring time-resolved fluorescence intensity. Specific binding was calculated by subtracting the non-specific binding measured in uncoated wells incubated with identical samples. The data shown are means±SD from a representative experiment. The binding curve, equilibrium dissociation constant (Kd, in nanomolar units) and maximum binding capacity (Bmax, in CPS units (counts per second)) were calculated by non-linear regression (four-parameter fit) using the Prism 5.0 software suite.

- % max inhibition (pro-uPA pre-treat.) (wild-type human uPAR): < 20%
- % max inhibition (veh. pre-treat.) (wild-type human uPAR): 37%
B5: BE18 (antibody, mouse IgG1, V domains shown)
VH: ELVKPGASVKIICKASGYIFTDYNMDWVKQSHGKSLEWIGEINPNNGDTIYNQNFKGKATLTVDKSSSTAHMALRSLTSEDTAVYYCTRKGGLRAWFVYWGQGTLVTVS
VL: MSASPGEKVTMTCRASSSVSSSYLHWYQQKSGASPKVWIYSTSNLASGVPARFSGSGSGTSYSLTISSVEAEDAATYYCQQYSGYPLTFGSGTKLEIQ

- Kd (vitronectin): 0.62 nM
- Kd (pro-uPA [1]): 28 nM
B6: ^GFDuPARmyc (receptor)
chain: SNELHQVPSNCDCLNGGTCVSNKYFSNIHWCNCPKKFGGQHCEIDKSKGGAGAAGGLRCMQCKTNGDCRVEECALGQDLCRTTIVRLWEEGEELELVEKSCTHSEKTNRTLSYRTGLKITSLTEVVCGLDLCNQGNSGRAVTYSRSRYLECISCGSSDMSCERGRHQSLQCRSPEEQCLDVVTHWIQEGEEGRPKDDRHLRGCGYLPGCPGSNGFHNNDTFHFLKCCNTTKCNEGPILELENLPQNGRQCYSCKGNSTHGCSSEETFLIDCRGPMNQCLVATGTHEPKNQSYMVRGCATASMCQHAHLGDAFSMNHIDVSCCTKSGCNHPGGEQKLISEEDL
notes: used as concentrated CHO conditioned medium; also called soluble GFDuPAR

- Kd (pro-uPA [2]): 11 nM
- Kd (pro-uPA [1]): 1.1 nM
B7: uPARmyc (receptor)
chain: LRCMQCKTNGDCRVEECALGQDLCRTTIVRLWEEGEELELVEKSCTHSEKTNRTLSYRTGLKITSLTEVVCGLDLCNQGNSGRAVTYSRSRYLECISCGSSDMSCERGRHQSLQCRSPEEQCLDVVTHWIQEGEEGRPKDDRHLRGCGYLPGCPGSNGFHNNDTFHFLKCCNTTKCNEGPILELENLPQNGRQCYSCKGNSTHGCSSEETFLIDCRGPMNQCLVATGTHEPKNQSYMVRGCATASMCQHAHLGDAFSMNHIDVSCCTKSGCNHPGGEQKLISEEDL
notes: monomeric control receptor; used as concentrated CHO conditioned medium without purification; also called soluble monomeric form of uPAR with a C-terminal myc-tag

Second part, the binder before the results:

B1: 13F6 (antibody, mouse IgG1, V domains shown)
VH: ELVKPGASVELSCKASGYTFTSYWMNWVKQRPGRGLEWIGRIAPNSGGTQYSGKFKTKATLTVDKSSSTAYMQLSSLTSEDSAVYYCARGDYFGHFDYWGQGTTLTVS
VL: SLSASLGGKVTITCKASQDINNYIAWYQHKPGKGPRLLIHYTSILQPGIPSRFSGSGSGRDYSFSISNLEPEDIATYYCLQCDNLLTFGAGTKLELK
- % max inhibition (pro-uPA pre-treat.) (wild-type human uPAR): < 20%
- % max inhibition (veh. pre-treat.) (wild-type human uPAR): < 20%

B2: 13D11 (antibody, V domains shown)
VH: ELMKPGASVKLSCKATGYTFTDYWIEWVKQRPGHGLEWIGEILPGRDSTDYNENFKGKATFTADTSSNTAYMQLSSLTTEDSAIYYCARDYYGHISNWYFDVWGTGTTVTVS
VL: SLSASLGERVSLTCRASQDIGSSLNWLQQEPDGTIKRLIYATSSLDSGVPKRFSGSRSGSDYSLTISSLESVDFVVYYCLQYATSPYTFGGGTKLEIKR
- % max inhibition (pro-uPA pre-treat.) (wild-type human uPAR): 82%
- % max inhibition (veh. pre-treat.) (wild-type human uPAR): 38%

B3: 19.10 (antibody, V domains shown)
VH: ELVKPGASVKLSCKATGYTFTVYWMEWVRQRPGHGLEWIGEILPGSGRTNYNERFKGKATFTADTSSNTAYMQLSSLTTEDSAIYYCARDYSGDTSTGYFDVWGTGTTVTVS
VL: SLSASLGERVSLTCRASQDIGSGLSWLQQEPDGTIKRLIYATSSLDSGVPKRFSGSRSGSDYSLTISSLESEDFVDYYCLQYATSPYTFGGGTKLEIKR
- % max inhibition (pro-uPA pre-treat.) (wild-type human uPAR): 79%
- % max inhibition (veh. pre-treat.) (wild-type human uPAR): 67%

B4: AL6 (antibody, V domains shown)
VH: ELMKPGASVKLSCKATGYSFTGYWIEWVKQRPGHGLEWIGEILPGSDRTNYNEKFKGKATFTADTSSNTAYMQLSSLTTEDSAIYYCARDDYDRGLYIMDYWGQGTSVTVS
VL: SLSASLGERVSLTCRASQDIGTSLNWLQQEPDGTIRRLIYATSSLPPGVPKRFSGSRSGSDYSLTISSLESEDFVNYYCLQYATSPYTFGGGTKLEIKR
- % max inhibition (pro-uPA pre-treat.) (wild-type human uPAR): < 20%
- % max inhibition (veh. pre-treat.) (wild-type human uPAR): < 20%
